Assay results: the supplement of paper PMC12855868

B1: library; numbered along this chain (parent)
chain: MAAAGGARLLRAASAVLGGPAGRWLHHAGSRAGSSGLLRNRGPGGSAEASRSLSVSARARSSSEDKITVHFINRDGETLTTKGKVGDSLLDVVVENNLDIDGFGACEGTLACSTCHLIFEDHIYEKLDAITDEENDMLDLAYGLTDRSRLGCQICLTKSMDNMTVRVPETVADARQSIDVGKTS

Variants of: B1
Assay: scaled log2 fold change in cell abundance, elesclomol vs control (0 = silent mean, 1 = nonsense mean) (scaled log2 ratio); higher = higher viability under elesclomol (loss of FDX1 cuproptosis function)
Details: glucose 10 mM
Method: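 Deep mutational scan of full-length human FDX1: a pooled saturation-mutagenesis ORF library (every residue 2-184 mutated to all 19 amino acids plus stop, and silent codons where available) was expressed by lentivirus in FDX1-knockout ABC1 (14 days) or HEK293T (11 days) cells grown with elesclomol (ES) or DMSO control. Variant abundance came from ORF sequencing. The log2 fold change (ES vs control, mean of duplicates) was centred on the silent-variant mean (0) and scaled to the nonsense-variant mean (1). Higher values mean greater viability under ES, i.e. loss of FDX1 function in cuproptosis.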

[1] = with ABC1 FDX1 KO, elesclomol 5 nM, 14 days
[2] = with HEK293T FDX1 KO, elesclomol 40 nM, 11 days
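Further: variant abundance is its share of total variant reads in each endpoint sample, from next-generation sequencing of the integrated ORF PCR-amplified out of genomic DNA.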

Variant	scaled log2 fold change [1]	scaled log2 fold change [2]
R11G	0.36	-0.443
R11P	0.346	
R11A	0.289	-0.22
R11E	-0.0252	-0.275
R11I	0.175	-0.673
R11L	0.0826	0.444
R11V	0.177	-0.49
R11Q	0.24	0.0461
R11D	0.509	
R11T	0.0343	-0.658
R11M	-0.24	0.88
R11C	0.0344	-0.198
R11N	0.137	0.131
R11Y	0.189	0.793
R11H	0.0541	-0.696
R11W	0.0433	0.0594
R11S	0.406	-0.404
R11K	0.0892	1.03
R11F	0.139	-0.474
A7K	0.136	-0.253
A7V	-0.5	0.903
A7D	0.0271	0.843
A7M	-0.526	0.892
A7I	0.0041	-0.412

Variant	scaled log2 fold change [1]	scaled log2 fold change [2]
A7G	0.124	-0.098
A7L	0.0503	0.262
A7C	0.0253	0.515
A7T	0.268	
A7H	0.443	0.0712
A7W	0.0847	0.227
A7Q	-0.0571	
A7R	0.122	
A7N	-0.22	0.0857
A7P	0.316	
A7E	0.407	
A7Y	0.0823	0.506
A7S	0.0146	0.154
A7F	0.0991	0.612
A4L	-0.0228	0.193
A4I	0.158	0.102
A4N	0.0756	-0.335
A4Q	-0.35	
A4M	0.0396	-0.34
A4E	-0.03	-0.0483
A4V	-0.0619	-0.566
A4D	0.12	-0.0733
A4F	-0.326	0.068
A4W	0.154	-0.542

Variant	scaled log2 fold change [1]	scaled log2 fold change [2]
A4K	0.11	0.267
A4R	-0.535	-1.29
A4T	0.364	0.164
A4Y	0.257	0.669
A4G	-0.52	-0.212
A4S	0.221	0.988
A4C	0.0627	-1.09
G5H	0.507	1.08
G5V	0.268	-0.396
G5R	-0.43	-0.244
G5Y	-0.325	0.00599
G5N	0.381	0.127
G5T	-0.0306	0.915
G5I	0.0847	-0.0288
G5W	0.225	0.578
G5Q	0.0157	-0.646
G5L	0.0231	-0.373
G5D	0.153	0.63
G5F	0.228	0.695
G5M	0.245	-0.441
G5K	0.104	0.00379
G5S	0.203	-0.121
G5E	-0.0118	0.75
G5A	-0.65	0.164

Variant	scaled log2 fold change [1]	scaled log2 fold change [2]
G5P	0.0147	-0.46
A12D	0.231	0.265
A12L	0.128	-0.0278
A12M	-0.178	-0.222
A12Y	0.376	0.577
A12G	0.259	-0.297
A12K	0.0242	-0.213
A12V	0.373	
A12R	-0.455	0.571
A12I	0.306	-0.67
A12F	0.00609	-0.148
A12T	-0.00479	-0.247
A12H	0.526	0.197
A12C	0.0882	0.2
A12E	0.118	0.751
A12P	-0.154	-0.436
A12Q	0.144	0.91
A12S	0.0823	1.03
A12W	0.171	
A12N	-0.0628	0.996
A3Y	-0.181	0.561
A3H	0.204	-0.0465
A3E	0.299	1.21
A3L	-0.261	0.507

Variant	scaled log2 fold change [1]	scaled log2 fold change [2]
A3N	-0.349	-0.21
A3S	0.514	-0.0887
A3D	0.186	0.572
A3R	0.464	-0.63
A3C	0.227	0.756
A3P	0.16	-0.173
A3Q	0.292	-0.249
A3G	0.242	-0.188
A3T	0.122	-0.0717
A3V	0.0935	0.00813
A3W	0.38	0.562
A3K	0.135	0.17
A3I	0.134	-0.0748
A3M	-0.131	0.396
A3F	-0.338	0.0034
A13R	-0.131	0.251
A13W	0.54	-0.436
A13N	0.0507	-0.531
A13D	0.543	-0.132
A13C	0.224	0.158
A13V	0.347	
A13Y	-0.585	0.259
A13I	-0.0121	0.147
A13G	0.519	

Variant	scaled log2 fold change [1]	scaled log2 fold change [2]
A13Q	0.0333	0.653
A13T	0.0105	-0.0204
A13K	0.137	-0.0857
A13F	0.0208	1.34
A13M	-0.148	0.232
A13E	0.269	0.026
A13S	0.157	0.0322
A13P	0.188	
A13H	0.0738	-1.05
A13L	0.256	0.56
A2R	0.187	0.489
A2T	0.0597	-0.252
A2E	-0.26	0.752
A2F	0.0573	-0.164
A2M	0.0773	0.0994
A2N	-0.0435	0.135
A2Y	-0.115	-0.115
A2S	-0.234	0.215
A2P	-0.0191	0.0189
A2Q	-0.344	-0.344
A2G	0.451	
A2I	-0.127	-0.279
A2W	-0.098	-0.566
A2L	0.0991	-0.056

Variant	scaled log2 fold change [1]	scaled log2 fold change [2]
A2D	0.173	0.487
A2K	0.0757	-0.0727
A2V	0.0325	0.473
A2H	0.1	0.132
A2C	0.441	0.0714
S14W	-0.0995	-0.0707
S14C	0.43	-0.264
S14R	0.602	
S14Q	-0.469	
S14H	-0.573	
S14M	0.348	0.298
S14A	0.422	0.495
S14Y	0.283	0.523
S14G	0.603	
S14F	-0.657	
S14E	0.366	0.442
S14K	-0.193	0.475
S14V	0.113	
S14T	-0.472	
S14L	-0.903	0.688
S14P	0.707	
S14I	-0.891	-0.397
S14D	0.306	
R8K	0.28	-0.152

Variant	scaled log2 fold change [1]	scaled log2 fold change [2]
R8Y	0.407	0.189
R8P	0.109	-0.395
R8N	0.424	-0.174
R8Q	0.308	-0.248
R8I	0.286	0.291
R8T	-0.656	-0.382
R8W	0.232	0.198
R8H	0.292	-0.336
R8S	0.0501	-0.479
R8E	0.00393	-0.121
R8M	-0.909	-0.722
R8A	0.393	0.0204
R8C	0.116	1.05
R8V	0.395	0.881
R8L	-0.0928	-0.46
R8D	0.629	-0.108
R8F	-0.388	-0.798
A15C	0.107	0.017
L9E	0.282	-0.224
L9W	0.434	0.233
L9F	-0.0603	0.0924
L9N	0.353	-0.636
L9C	0.282	-0.0336
L9R	0.455	-0.0809

Variant	scaled log2 fold change [1]	scaled log2 fold change [2]
L9K	0.158	
L9H	-0.458	0.226
L9I	-0.993	-0.482
L9G	0.0757	1.11
L9M	0.105	0.772
L9D	0.403	-0.529
L9P	0.629	0.0788
L9T	0.431	
L9V	0.286	-0.433
L9Q	-0.0581	1.04
L9S	0.156	-0.659
L9Y	0.485	-0.192
L10Q	0.168	0.352
L10T	0.0611	
L10M	0.337	0.282
L10P	-0.379	
L10R	0.663	
L10E	0.307	-0.18
L10H	0.222	-0.209
L10G	0.705	
L10I	-0.165	0.0157
L10V	0.189	-0.208
L10K	-0.11	-0.14
L10D	0.404	0.0467

Variant	scaled log2 fold change [1]	scaled log2 fold change [2]
L10S	0.48	1.51
L10F	-0.0904	-0.0054
L10C	-0.592	0.0724
L10N	0.128	-0.352
L10W	-0.304	0.734
L10Y	0.409	0.302
G6W	0.149	0.125
G6R	0.173	0.123
G6Y	-0.0292	0.639
G6L	0.106	0.412
G6V	-0.0163	0.974
G6M	-0.159	-0.651
G6I	0.0452	-0.31
G6S	-0.502	-0.676
G6A	0.239	-0.652
G6P	0.13	0.0736
G6N	0.371	0.29
G6D	-0.00796	-0.86
G6Q	0.208	-0.0414
G6H	0.23	-1
G6K	0.0797	-0.166
G6C	0.339	0.86
G6F	0.153	-0.294
G6E	0.0669	
